Results published in PMC11574045, “A cofactor-induced repressive type of transcription factor condensation can be induced by synthetic peptides to suppress tumorigenesis” (The EMBO Journal, 2024).

B1: SIRT2 (protein, UniProt Q8IXJ6 2-389, looked up)
NAD-dependent protein …: AEPDPSHPLETQAGKVQEAQDSDSDSEGGAAGGEADMDFLRNLFSQTLSLGSQKERLLDELTLEGVARYMQSERCRRVICLVGAGISTSAGIPDFRSPSTGLYDNLEKYHLPYPEAIFEISYFKKHPEPFFALAKELYPGQFKPTICHYFMRLLKDKGLLLRCYTQNIDTLERIAGLEQEDLVEAHGTFYTSHCVSASCRHEYPLSWMKEKIFSEVTPKCEDCQSLVKPDIVFFGESLPARFFSCMQSDFLKVDLLLVMGTSLQVQPFASLISKAPLSTPRLLINKEKAGQSDPFLGMIMGLGGGMDFDSKKAYRDVAWLGECDQGCLALAELLGWKKELEDLVRREHASIDAQSGAGVPNPSTSASPKKSPPPAKDEARTTEREKPQ
B2: SETD8 (protein, UniProt Q9NQR1 1-393, looked up)
N-lysine methyltransferase …: MGEGGAAAALVAAAAAAAAAAAAVVAGQRRRRLGRRARCHGPGRAAGGKMSKPCAVEAAAAAVAATAPGPEMVERRGPGRPRTDGENVFTGQSKIYSYMSPNKCSGMRFPLQEENSVTHHEVKCQGKPLAGIYRKREEKRNAGNAVRSAMKSEEQKIKDARKGPLVPFPNQKSEAAEPPKTPPSSCDSTNAAIAKQALKKPIKGKQAPRKKAQGKTQQNRKLTDFYPVRRSSRKSKAELQSEERKRIDELIESGKEEGMKIDLIDGKGRGVIATKQFSRGDFVVEYHGDLIEITDAKKREALYAQDPSTGCYMYYFQYLSKTYCVDATRETNRLGRLINHSKCGNCQTKLHDIDGVPHLILIASRDIAAGEELLYDYGDRSKASIEAHPWLKH
B3: SCX (protein, UniProt Q7RTU7 1-201, looked up)
Basic helix-loop-helix …: MSFATLRPAPPGRYLYPEVSPLSEDEDRGSDSSGSDEKPCRVHAARCGLQGARRRAGGRRAGGGGPGGRPGREPRQRHTANARERDRTNSVNTAFTALRTLIPTEPADRKLSKIETLRLASSYISHLGNVLLAGEACGDGQPCHSGPAFFHAARAGSPPPPPPPPPARDGENTQPKQICTFCLSNQRKLSKDRDRKTAIRS
B4: SETD7 (protein, UniProt Q8WTS6 1-366, looked up)
Histone-lysine …: MDSDDEMVEEAVEGHLDDDGLPHGFCTVTYSSTDRFEGNFVHGEKNGRGKFFFFDGSTLEGYYVDDALQGQGVYTYEDGGVLQGTYVDGELNGPAQEYDTDGRLIFKGQYKDNIRHGVCWIYYPDGGSLVGEVNEDGEMTGEKIAYVYPDERTALYGKFIDGEMIEGKLATLMSTEEGRPHFELMPGNSVYHFDKSTSSCISTNALLPDPYESERVYVAESLISSAGEGLFSKVAVGPNTVMSFYNGVRITHQEVDSRDWALNGNTLSLDEETVIDVPEPYNHVSKYCASLGHKANHSFTPNCIYDMFVHPRFGPIKCIRTLRAVEADEELTVAYGYDHSPPGKSGPEAPEWYQVELKAFQATQQK
B5: SCRT1 (protein, UniProt Q99M85 1-348, looked up)
Transcriptional repressor …: MPRSFLVKKVKLDTFSSADLDSSYGRARSDLGVRLQDKGYLSDYVGPASVYDGDAEAALLKGPSPEPMYAAAVRGELGPAASGSAPPPTPRPELATAAGGYINGDAAVSEGYAADAFFITDGRSRRKAANANAAAAPSTASVAAPDSDAGGGGGPGTRGSGSGSASRGGTRVGAGTEARAGSGATGAGGRHACGECGKTYATSSNLSRHKQTHRSLDSQLARRCPTCGKVYVSMPAMAMHLLTHDLRHKCGVCGKAFSRPWLLQGHMRSHTGEKPFGCAHCGKAFADRSNLRAHMQTHSAFKHFQCKRCKKSFALKSYLNKHYESACFKGGASGPATPAPPQLSPVQA
B6: SIM1 (protein, UniProt P81133 1-766, looked up)
Single-minded homolog 1: MKEKSKNAARTRREKENSEFYELAKLLPLPSAITSQLDKASIIRLTTSYLKMRVVFPEGLGEAWGHSSRTSPLDNVGRELGSHLLQTLDGFIFVVAPDGKIMYISETASVHLGLSQVELTGNSIYEYIHPADHDEMTAVLTAHQPYHSHFVQEYEIERSFFLRMKCVLAKRNAGLTCGGYKVIHCSGYLKIRQYSLDMSPFDGCYQNVGLVAVGHSLPPSAVTEIKLHSNMFMFRASLDMKLIFLDSRVAELTGYEPQDLIEKTLYHHVHGCDTFHLRCAHHLLLVKGQVTTKYYRFLAKHGGWVWVQSYATIVHNSRSSRPHCIVSVNYVLTDTEYKGLQLSLDQISASKPAFSYTSSSTPTMTDNRKGAKSRLSSSKSKSRTSPYPQYSGFHTERSESDHDSQWGGSPLTDTASPQLLDPADRPGSQHDASCAYRQFSDRSSLCYGFALDHSRLVEERHFHTQACEGGRCEAGRYFLGTPQAGREPWWGSRAALPLTKASPESREAYENSMPHIASVHRIHGRGHWDEDSVVSSPDPGSASESGDRYRTEQYQSSPHEPSKIETLIRATQQMIKEEENRLQLRKAPSDQLASINGAGKKHSLCFANYQQPPPTGEVCHGSALANTSPCDHIQQREGKMLSPHENDYDNSPTALSRISSPNSDRISKSSLILAKDYLHSDISPHQTAGDHPTVSPNCFGSHRQYFDKHAYTLTGYALEHLYDSETIRNYSLGCNGSHFDVTSHLRMQPDPAQGHKGTSVIITNGS
B7: SCAND1 (protein, UniProt P57086 1-179, looked up)
SCAN domain-containing …: MAATEPILAATGSPAAVPPEKLEGAGSSSAPERNCVGSSLPEASPPAPEPSSPNAAVPEAIPTPRAAASAALELPLGPAPVSVAPQAEAEARSTPGPAGSRLGPETFRQRFRQFRYQDAAGPREAFRQLRELSRQWLRPDIRTKEQIVEMLVQEQLLAILPEAARARRIRRRTDVRITG
B8: SALL1 (protein, UniProt Q9NSC2 1-1324, looked up)
Sal-like protein 1: MSRRKQAKPQHFQSDPEVASLPRRDGDTEKGQPSRPTKSKDAHVCGRCCAEFFELSDLLLHKKNCTKNQLVLIVNENPASPPETFSPSPPPDNPDEQMNDTVNKTDQVDCSDLSEHNGLDREESMEVEAPVANKSGSGTSSGSHSSTAPSSSSSSSSSSGGGGSSSTGTSAITTSLPQLGDLTTLGNFSVINSNVIIENLQSTKVAVAQFSQEARCGGASGGKLAVPALMEQLLALQQQQIHQLQLIEQIRHQILLLASQNADLPTSSSPSQGTLRTSANPLSTLSSHLSQQLAAAAGLAQSLASQSASISGVKQLPPIQLPQSSSGNTIIPSNSGSSPNMNILAAAVTTPSSEKVASSAGASHVSNPAVSSSSSPAFAISSLLSPASNPLLPQQASANSVFPSPLPNIGTTAEDLNSLSALAQQRKSKPPNVTAFEAKSTSDEAFFKHKCRFCAKVFGSDSALQIHLRSHTGERPFKCNICGNRFSTKGNLKVHFQRHKEKYPHIQMNPYPVPEHLDNIPTSTGIPYGMSIPPEKPVTSWLDTKPVLPTLTTSVGLPLPPTLPSLIPFIKTEEPAPIPISHSATSPPGSVKSDSGGPESATRNLGGLPEEAEGSTLPPSGGKSEESGMVTNSVPTASSSVLSSPAADCGPAGSATTFTNPLLPLMSEQFKAKFPFGGLLDSAQASETSKLQQLVENIDKKATDPNECIICHRVLSCQSALKMHYRTHTGERPFKCKICGRAFTTKGNLKTHYSVHRAMPPLRVQHSCPICQKKFTNAVVLQQHIRMHMGGQIPNTPVPDSYSESMESDTGSFDEKNFDDLDNFSDENMEDCPEGSIPDTPKSADASQDSLSSSPLPLEMSSIAALENQMKMINAGLAEQLQASLKSVENGSIEGDVLTNDSSSVGGDMESQSAGSPAISESTSSMQALSPSNSTQEFHKSPSIEEKPQRAVPSEFANGLSPTPVNGGALDLTSSHAEKIIKEDSLGILFPFRDRGKFKNTACDICGKTFACQSALDIHYRSHTKERPFICTVCNRGFSTKGNLKQHMLTHQMRDLPSQLFEPSSNLGPNQNSAVIPANSLSSLIKTEVNGFVHVSPQDSKDTPTSHVPSGPLSSSATSPVLLPALPRRTPKQHYCNTCGKTFSSSSALQIHERTHTGEKPFACTICGRAFTTKGNLKVHMGTHMWNSTPARRGRRLSVDGPMTFLGGNPVKFPEMFQKDLAARSGSGDPSSFWNQYAAALSNGLAMKANEISVIQNGGIPPIPGSLGSGNSSPVSGLTGNLERLQNSEPNAPLAGLEKMASSENGTNFRFTRFVEDSKEIVTS
B9: RYBP (protein, UniProt Q8N488 1-228, looked up)
RING1 and YY1-binding protein: MTMGDKKSPTRPKRQAKPAADEGFWDCSVCTFRNSAEAFKCSICDVRKGTSTRKPRINSQLVAQQVAQQYATPPPPKKEKKEKVEKQDKEKPEKDKEISPSVTKKNTNKKTKPKSDILKDPPSEANSIQSANATTKTSETNHTSRPRLKNVDRSTAQQLAVTVGNVTVIITDFKEKTRSSSTSSSTVTSSAGSEQQNQSSSGSESTDKGSSRSSTPKGDMSAVNDESF
B10: BBX (protein, UniProt Q8WY36 1-941, looked up)
HMG box transcription factor …: MKGSNRNKDHSAEGEGVGKRPKRKCLQWHPLLAKKLLDFSEEEEEEDEEEDIDKVQLLGADGLEQDVGETEDDESPEQRARRPMNAFLLFCKRHRSLVRQEHPRLDNRGATKILADWWAVLDPKEKQKYTDMAKEYKDAFMKANPGYKWCPTTNKPVKSPTPTVNPRKKLWAFPSDSSRDLPSPKKAKTEEMPQLNFGMADPTQMGGLSMLLLAGEHALGTPEVSSGTCRPDVSESPELRQKSPLFQFAEISSSTSHSDASTKQCQTSALFQFAEISSNTSQLGGAEPVKRCGKSALFQLAEMCLASEGMKMEESKLIKAKESDGGRIKELEKGKEEKEIKMEKTDETRLQKEAEFEKSAKENLRDSKELRNFEALQIDDIMAIKMEDPKEIRKEELEEDHKCSHFPDFSYSASSKIIISDVPSRKDHMCHPHGIMIIEDPAALNKPEKLKKKKKKSKMDRHGNDKSTPKKTCKKRQSSESDIESVIYTIEAVAKGDWGIEKLGDTPRKKVRTSSSGKGSILDAKPPKKKVKSREKKMSKEKSSDTTKESRPPDFISISASKNISGETPEGIKAEPLTPMEDALPPSLSGQAKPEDSDCHRKIETCGSRKSERSCKGALYKTLVSEGMLTSLRANVDRGKRSSGKGNSSDHEGCWNEESWTFSQSGTSGSKKFKKTKPKEDCLLGSAKLDEEFEKKFNSLPQYSPVTFDRKCVPVPRKKKKTGNVSSEPTKTSKGPFQSQKKNLFHKIVSKYKHKKEKPNVPEKGSGDKWSNKQLFLDAIHPTEAIFSEDRNTMEPVHKVKNIPSIFNTPEPTTTQEPLVGSQKRKARKTKITHLVRTADGRVSPAGGTLDDKPKEQLQRSLPKATETDCNDKCSHNTEVGETRSSTPEMPAVSAFFSLAALAEVAAMENVHRGQRSTPLTHDGQPKEMPQAPVLISCADQ

Tested on: HEK293FT cells transfected with TF library
Assay: Screening of TF condensates based on fluorescent puncta
Type: cell-based
Settings: Figure 1B numerical data; TF library screen, one value per transcriptional factor
How it was run: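 Puncta scoring used automated confocal imaging of fifty random fields per well, after anti-Flag or anti-GAL4 immunofluorescence (Alexa 488) in PFA-fixed cells. HEK293FT cells carried TF library plasmids delivered with PEI (1.6 μg/ml DNA). At 60 h they were switched for 12 h to glucose-containing or glucose-free medium.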

| Molecule | Z score of condensed fraction |
| --- | --- |
| B1 | 0.4793 |
| B2 | -0.8816 |
| B3 | -0.06618 |
| B4 | 0.4495 |
| B5 | 0.5906 |
| B6 | -1.099 |
| B7 | -0.8992 |
| B8 | -0.9814 |
| B9 | -0.5834 |
| B10 | 1.56 |
